# Test results reported in patent US6406886.
# B1: Span-N/GST fusion protein (protein, not shown: a dimerising Fc or GST)
# chain: MYNNQEAGAAFMQFLTLLGDVVRLKGFESYRAQLDTKTDSTGTHSLYTTYQDHEIMFHVSTMLPYTPNNQQQLLRKRHIGNDIVTIVFQEPGSKPFCPTTIRSHFQHVFLVVRAHAPCTPHTSYRVAVSRTQDTPAFGPALPEGGGPFAANADFRAFLLAKALNGEQAAGHARQFHAMATRTRQQYLQDL
# Assays:
# Test in all cases: cell-based or functional assay
# [1] = target: yeast Rsr1 (1st to 272nd residues) (yeast) (UniProt P13856)
# Ran = target: Ran
# Rac1 = target: Rac1
# [2] = target: human Rap1A (Glu63) (1st to 184th residues) (human) (UniProt P62834)
# [3] = target: human RhoA (1st to 193 residues) GST fusion protein (human) (UniProt P61586)
# [4] = target: human Ha-Ras (1st to 189th residues) (human) (UniProt P01112)
# human Ha-Ras (1st to 189th residues) (human), sequence (P01112 whole entry, form in doubt): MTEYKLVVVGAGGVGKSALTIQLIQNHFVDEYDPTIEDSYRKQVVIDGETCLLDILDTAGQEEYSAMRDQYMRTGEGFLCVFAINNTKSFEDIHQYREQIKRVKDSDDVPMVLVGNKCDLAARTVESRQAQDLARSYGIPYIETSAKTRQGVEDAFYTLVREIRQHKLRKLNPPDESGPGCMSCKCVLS
# human RhoA (1st to 193 residues) GST fusion protein (human), sequence (P61586 whole entry, form in doubt, the tested form may be a part): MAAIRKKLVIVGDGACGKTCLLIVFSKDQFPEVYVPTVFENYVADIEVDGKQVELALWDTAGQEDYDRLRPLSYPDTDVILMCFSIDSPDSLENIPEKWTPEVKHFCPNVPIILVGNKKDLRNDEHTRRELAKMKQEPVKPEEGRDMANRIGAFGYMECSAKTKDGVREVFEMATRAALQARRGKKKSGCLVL
# yeast Rsr1 (1st to 272nd residues) (yeast), sequence (P13856 whole entry, form in doubt): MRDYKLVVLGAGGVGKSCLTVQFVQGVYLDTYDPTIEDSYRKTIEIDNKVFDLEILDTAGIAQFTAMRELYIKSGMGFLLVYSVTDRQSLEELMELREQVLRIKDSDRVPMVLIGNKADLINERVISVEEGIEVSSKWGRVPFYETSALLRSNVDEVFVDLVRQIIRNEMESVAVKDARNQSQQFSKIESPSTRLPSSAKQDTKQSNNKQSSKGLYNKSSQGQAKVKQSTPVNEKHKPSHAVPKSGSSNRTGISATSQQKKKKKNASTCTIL
# human Rap1A (Glu63) (1st to 184th residues) (human), sequence (P62834 whole entry, the tested form may be a part): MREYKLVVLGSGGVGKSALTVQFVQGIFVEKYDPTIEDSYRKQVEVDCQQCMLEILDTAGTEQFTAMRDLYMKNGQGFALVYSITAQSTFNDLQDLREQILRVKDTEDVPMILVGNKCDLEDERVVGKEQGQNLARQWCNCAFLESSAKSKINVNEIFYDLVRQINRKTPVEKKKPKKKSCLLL
binder,measurement,setting,value
B1,Stimulation (times) of GTPase activity,[1],16 times
same,"EC16 (µg/ml), activation of Ran GTPase",Ran,25 µg/mL
same,Stimulation (times) of GTPase activity,Rac1,0 times
same,Stimulation (times) of GTPase activity,[2],6 times
same,Stimulation (times) of GTPase activity,[3],0.6 times
same,Stimulation (times) of GTPase activity,[4],0.3 times
